From the supplement of paper PMC9112550, “Optimization of the antimicrobial peptide Bac7 by deep mutational scanning” (BMC Biology, 2022)

system: Escherichia coli TOP10; test: shrunken log2 fold change of peptide-encoding DNA abundance (4.5 h post-induction vs induction); higher = less antimicrobial activity (less host growth inhibition); conditions: time post-induction: 4.5 h; library: site-saturation at positions 5, 18, 19, 20
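Note: peptides expressed intracellularly from a pBAD plasmid library in pooled LB shake-flask culture, induced with 0.3% L-arabinose, DNA abundance read by NGS, three biological replicates, DESeq2 with apeglm shrinkage.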

| Sequence | shrunken log2 fold change |
| --- | --- |
| RRIRQRPPRLPRPRPRPGGLPRP | 0.28 |
| RRIRLRPPRLPRPRPRPYEMPRP | -0.468 |
| RRIRYRPPRLPRPRPRPKGTPRP | -0.0217 |
| RRIRMRPPRLPRPRPRPDCAPRP | 1.95 |
| RRIRLRPPRLPRPRPRPCYWPRP | -0.317 |
| RRIRHRPPRLPRPRPRPAATPRP | 0.292 |
| RRIRRRPPRLPRPRPRPRRSPRP | 0.516 |
| RRIRLRPPRLPRPRPRPVGWPRP | 0.671 |
| RRIRGRPPRLPRPRPRPFRRPRP | 0.234 |
| RRIRKRPPRLPRPRPRPASNPRP | 0.147 |
| RRIRCRPPRLPRPRPRPDMTPRP | -0.00325 |
| RRIRHRPPRLPRPRPRPPDVPRP | 0.113 |
| RRIRLRPPRLPRPRPRPILSPRP | -0.0305 |
| RRIRGRPPRLPRPRPRPQYCPRP | 0.192 |
| RRIRPRPPRLPRPRPRPSTSPRP | -0.0506 |
| RRIRCRPPRLPRPRPRPLKYPRP | -0.566 |
| RRIRERPPRLPRPRPRPFCNPRP | -0.366 |
| RRIRMRPPRLPRPRPRPKIRPRP | -0.0101 |
| RRIRARPPRLPRPRPRPRWDPRP | 0.768 |
| RRIRCRPPRLPRPRPRPAMHPRP | 0.354 |
| RRIRGRPPRLPRPRPRPHGMPRP | 0.0949 |
| RRIRMRPPRLPRPRPRPRMYPRP | -0.0804 |
| RRIRARPPRLPRPRPRPWQTPRP | 0.0127 |
| RRIRQRPPRLPRPRPRPERSPRP | 0.0688 |
| RRIRGRPPRLPRPRPRPVVMPRP | 0.237 |

| Sequence | shrunken log2 fold change |
| --- | --- |
| RRIRWRPPRLPRPRPRPEEEPRP | 0.00738 |
| RRIRNRPPRLPRPRPRPTAMPRP | 0.285 |
| RRIRRRPPRLPRPRPRPTIEPRP | 0.212 |
| RRIRPRPPRLPRPRPRPSSRPRP | -0.863 |
| RRIRFRPPRLPRPRPRPRQLPRP | -0.0618 |
| RRIRCRPPRLPRPRPRPSQMPRP | -0.278 |
| RRIRRRPPRLPRPRPRPGEPPRP | 0.41 |
| RRIRFRPPRLPRPRPRPTFDPRP | -0.138 |
| RRIRIRPPRLPRPRPRPLEGPRP | -0.0524 |
| RRIRVRPPRLPRPRPRPVQAPRP | -0.0106 |
| RRIRDRPPRLPRPRPRPCSKPRP | 0.0354 |
| RRIRRRPPRLPRPRPRPFRYPRP | 0.292 |
| RRIRPRPPRLPRPRPRPYFTPRP | -0.882 |
| RRIRHRPPRLPRPRPRPDGGPRP | -0.137 |
| RRIRARPPRLPRPRPRPFSQPRP | -0.0436 |
| RRIRLRPPRLPRPRPRPNGTPRP | -0.221 |
| RRIRQRPPRLPRPRPRPMYVPRP | -0.0439 |
| RRIRSRPPRLPRPRPRPPFPPRP | 0.256 |
| RRIRQRPPRLPRPRPRPIWRPRP | -0.068 |
| RRIRVRPPRLPRPRPRPLHFPRP | -0.346 |
| RRIRHRPPRLPRPRPRPAVHPRP | 0.0645 |
| RRIRFRPPRLPRPRPRPDHMPRP | -0.585 |
| RRIRMRPPRLPRPRPRPTDYPRP | 0.166 |
| RRIRCRPPRLPRPRPRPPTNPRP | 0.248 |
| RRIRRRPPRLPRPRPRPENIPRP | -0.468 |

| Sequence | shrunken log2 fold change |
| --- | --- |
| RRIRSRPPRLPRPRPRPVPRPRP | 0.427 |
| RRIRKRPPRLPRPRPRPRNPPRP | 0.358 |
| RRIRTRPPRLPRPRPRPAYPPRP | -0.072 |
| RRIRHRPPRLPRPRPRPCCPPRP | -0.243 |
| RRIRLRPPRLPRPRPRPFWNPRP | -0.275 |
| RRIRMRPPRLPRPRPRPYSFPRP | -0.266 |
| RRIRQRPPRLPRPRPRPNVQPRP | 0.031 |
| RRIRPRPPRLPRPRPRPEDPPRP | 0.122 |
| RRIRQRPPRLPRPRPRPKFRPRP | 0.0034 |
| RRIRMRPPRLPRPRPRPLYEPRP | 0.362 |
| RRIRWRPPRLPRPRPRPTHLPRP | 0.0424 |
| RRIRLRPPRLPRPRPRPYAHPRP | -0.0393 |
| RRIRVRPPRLPRPRPRPSKGPRP | -0.276 |
| RRIRIRPPRLPRPRPRPQLHPRP | -0.252 |
| RRIRCRPPRLPRPRPRPLIIPRP | -1.07 |
| RRIRPRPPRLPRPRPRPQHEPRP | -0.146 |
| RRIRSRPPRLPRPRPRPIKQPRP | -0.13 |
| RRIRYRPPRLPRPRPRPMVQPRP | 0.0303 |
| RRIRKRPPRLPRPRPRPAFTPRP | 0.021 |
| RRIRPRPPRLPRPRPRPTCQPRP | -0.0775 |
| RRIRFRPPRLPRPRPRPRASPRP | 0.33 |
| RRIRHRPPRLPRPRPRPQTTPRP | -0.0121 |
| RRIRARPPRLPRPRPRPQMNPRP | -0.113 |
| RRIRGRPPRLPRPRPRPLSPPRP | 0.435 |
| RRIRNRPPRLPRPRPRPFAFPRP | -0.74 |

| Sequence | shrunken log2 fold change |
| --- | --- |
| RRIRCRPPRLPRPRPRPKSIPRP | -0.349 |
| RRIRTRPPRLPRPRPRPLHNPRP | -0.557 |
| RRIRHRPPRLPRPRPRPNHMPRP | 0.124 |
| RRIRTRPPRLPRPRPRPTSIPRP | -0.195 |
| RRIRDRPPRLPRPRPRPEICPRP | 0.023 |
| RRIRGRPPRLPRPRPRPQMMPRP | 0.112 |
| RRIRNRPPRLPRPRPRPRRLPRP | 2.6 |
| RRIRKRPPRLPRPRPRPVTDPRP | -0.0127 |
| RRIRCRPPRLPRPRPRPQWLPRP | -0.133 |
| RRIRIRPPRLPRPRPRPNCQPRP | -0.367 |
| RRIRKRPPRLPRPRPRPRPCPRP | 0.365 |
| RRIRVRPPRLPRPRPRPAFLPRP | 0.0548 |
| RRIRARPPRLPRPRPRPWWFPRP | 0.049 |
| RRIRSRPPRLPRPRPRPQIFPRP | 0.0933 |
| RRIRYRPPRLPRPRPRPCLPPRP | -0.409 |
| RRIRWRPPRLPRPRPRPATWPRP | 0.152 |
| RRIRFRPPRLPRPRPRPAYGPRP | -0.41 |
| RRIRGRPPRLPRPRPRPCTDPRP | 0.522 |
| RRIRCRPPRLPRPRPRPGHPPRP | 0.00689 |
| RRIRHRPPRLPRPRPRPTCPPRP | 0.0464 |
| RRIRTRPPRLPRPRPRPVHWPRP | 0.842 |
| RRIRGRPPRLPRPRPRPTRMPRP | 0.571 |
| RRIRNRPPRLPRPRPRPVQYPRP | -0.000777 |
| RRIRMRPPRLPRPRPRPRCYPRP | -0.00529 |
| RRIRCRPPRLPRPRPRPEYNPRP | -0.243 |

| Sequence | shrunken log2 fold change |
| --- | --- |
| RRIRYRPPRLPRPRPRPLDMPRP | -0.151 |
| RRIRHRPPRLPRPRPRPFNTPRP | -1.18 |
| RRIRTRPPRLPRPRPRPAQYPRP | 0.105 |
| RRIRARPPRLPRPRPRPSYKPRP | -0.305 |
| RRIRCRPPRLPRPRPRPNTIPRP | -0.553 |
| RRIRIRPPRLPRPRPRPQREPRP | 0.0374 |
| RRIRKRPPRLPRPRPRPNTFPRP | -0.0899 |
| RRIRCRPPRLPRPRPRPRWHPRP | -0.00459 |
| RRIRSRPPRLPRPRPRPKRGPRP | 0.0665 |
| RRIRWRPPRLPRPRPRPDICPRP | -0.0379 |
| RRIRVRPPRLPRPRPRPWWGPRP | 0.0115 |
| RRIRCRPPRLPRPRPRPHEAPRP | -0.65 |
| RRIRTRPPRLPRPRPRPLYRPRP | 0.0015 |
| RRIRLRPPRLPRPRPRPIWGPRP | 0.112 |
| RRIRSRPPRLPRPRPRPAKRPRP | 0.214 |
| RRIRSRPPRLPRPRPRPHMGPRP | -0.0366 |
| RRIRKRPPRLPRPRPRPCWFPRP | -0.0655 |
| RRIRWRPPRLPRPRPRPNSYPRP | -0.197 |
| RRIRVRPPRLPRPRPRPFDPPRP | -0.0153 |
| RRIRYRPPRLPRPRPRPSMYPRP | -0.418 |
| RRIRWRPPRLPRPRPRPGIDPRP | 0.117 |
| RRIRMRPPRLPRPRPRPKKWPRP | 0.962 |
| RRIRLRPPRLPRPRPRPHGTPRP | 0.0824 |
| RRIRCRPPRLPRPRPRPKYIPRP | -0.828 |
| RRIRHRPPRLPRPRPRPQDGPRP | -0.0342 |

| Sequence | shrunken log2 fold change |
| --- | --- |
| RRIRARPPRLPRPRPRPRCFPRP | 0.222 |
| RRIRNRPPRLPRPRPRPMMHPRP | -0.25 |
| RRIRYRPPRLPRPRPRPDFQPRP | -0.409 |
| RRIRKRPPRLPRPRPRPVCLPRP | 0.0948 |
| RRIRIRPPRLPRPRPRPDNDPRP | -0.115 |
| RRIRVRPPRLPRPRPRPVCAPRP | 0.413 |
| RRIRERPPRLPRPRPRPFCVPRP | -0.026 |
| RRIRYRPPRLPRPRPRPANGPRP | -0.6 |
| RRIRERPPRLPRPRPRPAMFPRP | -1.09 |
| RRIRKRPPRLPRPRPRPFWEPRP | 0.341 |
| RRIRERPPRLPRPRPRPSQDPRP | -0.137 |
| RRIRMRPPRLPRPRPRPFTEPRP | 0.0426 |
| RRIRYRPPRLPRPRPRPMENPRP | -0.207 |
| RRIRVRPPRLPRPRPRPHFYPRP | -0.173 |
| RRIRLRPPRLPRPRPRPMFMPRP | -0.208 |
| RRIRFRPPRLPRPRPRPWVMPRP | -0.258 |
| RRIRLRPPRLPRPRPRPMPGPRP | 0.437 |
| RRIRHRPPRLPRPRPRPQASPRP | 0.0479 |
| RRIRKRPPRLPRPRPRPGSRPRP | -0.171 |
| RRIRNRPPRLPRPRPRPCPMPRP | 0.151 |
| RRIRSRPPRLPRPRPRPFMFPRP | -0.156 |
| RRIRLRPPRLPRPRPRPHPFPRP | 0.0808 |
| RRIRRRPPRLPRPRPRPTFWPRP | 0.436 |
| RRIRRRPPRLPRPRPRPHNFPRP | -0.0578 |
| RRIRTRPPRLPRPRPRPSAKPRP | 0.227 |
